Experimental data from US20230265187A1 (published 2023).

T1: human TIGIT on Jurkat cells (TIGIT/NFAT reporter Jurkat cells, BPS Bioscience #60538); Promega TIGIT Effector … (human, UniProt Q495A1 22-244)
T1 sequence (looked up): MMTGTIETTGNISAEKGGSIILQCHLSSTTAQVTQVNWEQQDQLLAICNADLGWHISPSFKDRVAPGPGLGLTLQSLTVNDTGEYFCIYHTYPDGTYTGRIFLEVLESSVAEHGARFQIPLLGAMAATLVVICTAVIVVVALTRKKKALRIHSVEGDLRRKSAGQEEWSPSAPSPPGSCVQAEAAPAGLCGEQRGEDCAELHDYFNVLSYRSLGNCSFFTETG

T2: his-tagged human TIGIT (Acro Biosystems #TIT-H52H3) (human, UniProt Q495A1 22-141)
T2 construct: Bought protein; also called His-tagged-TIGIT (human); not shown: his tag
T2 sequence (looked up): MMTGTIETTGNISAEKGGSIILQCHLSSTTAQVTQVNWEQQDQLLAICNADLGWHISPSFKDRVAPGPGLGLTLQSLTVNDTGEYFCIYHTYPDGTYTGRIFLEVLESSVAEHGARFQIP

T3: his-tagged murine TIGIT (Acro Biosystems #TIT-M52E6) (murine, UniProt P86176 29-148, limits assumed)
T3 construct: Bought protein; also called mouse his-tagged TIGIT; not shown: his tag
T3 sequence (looked up): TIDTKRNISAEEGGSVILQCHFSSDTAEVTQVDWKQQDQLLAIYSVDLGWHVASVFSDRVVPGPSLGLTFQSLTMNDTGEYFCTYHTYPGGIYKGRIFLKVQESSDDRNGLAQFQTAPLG


Key:
[1] = target: T1, human TIGIT on Jurkat cells (TIGIT/NFAT …); assay: cell-based or functional assay
[2] = target: T2, his-tagged human TIGIT (Acro Biosystems …); assay: ELISA, coated His-TIGIT, 1 ug/ml
[3] = target: T3, his-tagged murine TIGIT (Acro …); assay: ELISA, coated His-TIGIT, 1 ug/ml
[4] = target: T4, His-tagged cynomolgus monkey TIGIT (Acro Biosystems #TIT-05223) (cynomolgus monkey, UniProt A0A7N9I9V4 89-209); assay: ELISA, coated His-TIGIT, 1 ug/ml
T4 construct: Bought protein; also called cyno TIGIT; cynomolgus TIGIT; not shown: His tag
T4 sequence (A0A7N9I9V4 entry or part of it): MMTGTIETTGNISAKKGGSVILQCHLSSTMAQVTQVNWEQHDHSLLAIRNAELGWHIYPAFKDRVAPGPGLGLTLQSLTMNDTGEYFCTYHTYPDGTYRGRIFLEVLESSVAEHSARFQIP

[5] = target: T1, human TIGIT on Jurkat cells (TIGIT/NFAT …); assay: flow cytometry, TIGIT/NFAT Jurkat cells, 10 ug/ml
[6] = target: T2, his-tagged human TIGIT (Acro Biosystems …); assay: SPR (Carterra LSA), scFv-Fc captured, His-TIGIT analyte
Procedure: (§1) Binding affinities of anti-TIGIT antibodies to human, cyno, and murine TIGIT were measured by Surface Plasmon Resonance (SPR) on a Carterra LSA instrument. Goat anti-human Fc antibody was amine coupled to a HC30M chip. ScFv-Fc supernatants were diluted 30-fold with HBSTE and were captured by the anti-human Fc coupled HC30M chip. A 1:2 dilution series of his-tagged human TIGIT, starting at 400 nM, was injected onto the chip for binding. A dilution series was also carried out for cyno TIGIT and murine TIGIT. Data were analyzed using the Carterra™ Kinetics software.

[7] = target: T3, his-tagged murine TIGIT (Acro …); assay: as above
Procedure: as §1

[8] = target: T4, His-tagged cynomolgus monkey TIGIT …; assay: as above
Procedure: as §1

| Binder | max. signal (% of 22G2) [1] | Elisa OD450 [2] [OD450] | Elisa OD450 [3] [OD450] | Elisa OD450 [4] [OD450] | MFI [5] [MFI] | Kd [6] [nM] | Kd [7] [nM] | Kd [8] [nM] |
| --- | --- | --- | --- | --- | --- | --- | --- | --- |
| 43586p1.2.B8 (scFv, V domains shown) VH: EVQLLESGGGLVQPGGSLRLSCAASGFTFTSYLMSWVRQAPGKGLEWVSTITWDGDRTYYADSVKGRFTISRDNSKNTLYLQMNSLRVGDTAVYYCAKHWTVFQYGMDVWGQGTTVTVSS VL: QSVLTQPASASGTPGQRVTITCSGTISNIETKYVSWYQQLPGTAPKLLIYGNHQRPSGVPDRFSGSKSGTSASLAISGLQSEDEADYYCASWENDLKSWVFGGGTKLTVL | 130 % of 22G2 | 2.1 | 1.66 | 1.46 | 9470 | 0.125 | 501 | 25.3 |
| 43586p1.2.C9 (scFv, V domains shown) VH: EVQLLESGGGLVQPGGSLRLSCAASGFTFDDYVMSWVRQAPGKGLEWVSLINWNGDKTYYADSVKGRFTISRDNSKNTLYLQMNSLRAEDTAIYYCAKHWIVFQYGMDVWGQGTTVTVSS VL: QSVLTQPPSASGTPGQRVTISCSGSISNIETKYVSWYQQLPGTAPKLLIYNSDQRPSGVPDRFSGSKSGTSASLAISGLQSEDEADYYCVSWDASLKSWVFGGGTKLTVL | 126 % of 22G2 | 2.17 | 0.046 | 1.61 | 8330 | 0.202 | 3.66 | 8.69 |
| 43586p1.2.C12 (scFv, V domains shown) VH: ESGGGLVQPGGSLRLSCAASGFTFSDYLMTWVRQAPGKGLEWVSTITWDGDRTYYADSVKGRFTISRDNSKNTLYLQMNSLRAEDTAVYYCAKHWTVFQYGMDVWGQGTTVTVSS VL: QSVLTQPPSASGTPGQRVTISCSGTISNIEIKYVSWYQQLPGTAPKLLIYGNHQRPSGVPDRFSGSKSGTSASLAISGLQSEDEADYYCSSWENDLKSWVFGGGTKLTVL | 118 % of 22G2 | 2.21 | 2.03 | 1.68 | 11900 | 0.192 | 68.2 | 9.18 |
| 43586p1.2.C5 (scFv, V domains shown) VH: EVQLLESGGGLVQPGGSLRLSCAASGFTVSDHYMSWVRQAPGKGLEWVSTTSSTSWKNYTYYADSVKGRFSISRDNSENTLYLQMNGLRAEDTAVYYCAKGSYGMDVWGQGTTVTVSS VL: QSVLTQPPSASGTPGQRVTISCSGSNFNIGTKYLYWYQQLPGTAPKLLIYLDSQRPSGVPDRFSTSKPGTSASLAISGLQSEDEADYYCALWDDHLHGWVFGGGTKLTVL | 91 % of 22G2 | 2.03 | 2.03 | 0.685 | 10700 | 1.04 | 3.2 | 411 |
| 43586p1.2.E6 (scFv, V domains shown) VH: EVQLLESGGGLVQPGGSLRLSCAASGFTVSDHYMSWVRQAPGKGLEWVSTTSSTSWKNYTYYADSVKGRFSISRDNSENTLYLQMNGLRAEDTAVYYCAKGSYGMDVWGQGTTVTVSS VL: QSVLTQPPSASGTPGQRVTISCSGSNFNIGTKYLYWYQQLPGTAPKLLIYLDSQRPSGVPDRFSTSKSGTSASLAISGLQSEDEADYYCALWDDHLHGWVFGGGTKLTVL | 97 % of 22G2 | 1.82 | 2.01 | 0.776 | 10500 | 1.56 | 3.07 | 564 |
| 43586p2.G01 (scFv, V domains shown) VH: EVQLLESGGGLVQPGGSLRLSCAASGFTVSSNWMSWVRQAPGKGLEWVSTTSSSSWNNYTYYADSVKGRFTISRDNSKNTLYLQMNSLRAEDTAVYYCAKGSYGMDVWGQGTTVTVSS VL: QSVLTQPPSASGTPGQRVTISCSGSNSNIGAKYLYWYQQLPGTAPKLLIYLNDRRPSGVPDRFSGSKSGTSASLAISGLQSEDEADYYCAFWDDHLKGWVFGGGTKLTVL | 110 % of 22G2 | 2.03 | 1.95 | 1.15 | 9720 | 2.69 | 1.65 | 339 |
| 43586p2.D01 (scFv, V domains shown) VH: EVQLLESGGGLVQPGGSLRLSCAASGFTVSSNWMSWVRQAPGKGLEWVSTTSSSSWNNYTYYADSVKGRFTISRDNSKNTLYLQMNSLRAEDTAVYYCAKGSYGMDVWGQGTTVTVSS VL: QSVLTQPPSASGTPGQRVTISCSGSNSNIGAKYLYWYQQLPGTAPKLLIYLNDQRPSGVPDRFSGSKSGTSASLAISGLQSEDEADYYCAFWDDHLKGWVFGGGTKLTVL | 103 % of 22G2 | 1.95 | 1.66 | 1.61 | 9990 | 1.04 | 0.496 | 29.1 |
| 43586p2.D05 (scFv, V domains shown) VH: EVQLLESGGGLVQPGGSLRLSCAASGFTFDDYVMSWVRQAPGKGLEWVSLINWNGDKTYYADSVKGRFTISRDNSKNTLYLQMNSLRAEDTAVYYCARHWIVFQYGLDIWGQGTTVTVSS VL: QSVLTQPLSASGTPGQRVTISCSGVSSNIEIKYVSWYQQLPGTAPKLLIYNSHQRPSGVPDRFSGSKSGTSASLAISGLQSEDEADYYCTSWDDRLKSWVFGGGTKLTVL | 118 % of 22G2 | 1.92 | 1.67 | 1.73 | 9960 | 0.214 | 5.46 | 1.55 |
| 43586p2.E08 (scFv, V domains shown) VH: EVQLLESGGDLVQPGGSLRLSCAASGFTFDDYVMSWVRQAPGKGLEWVSLINWNGDKTYYADSVKDRFTISRDNSKNTLYLQMNSLRAEDTAVYYCARHWIVFQYGLDVWGQGTTVTVSS VL: QSVLTQPLSASGTPGQRVTISCSGVSSNIEIKYVSWYQQLPGTAPKLLIYNSHQRPSGVPDRFSGSKSGTSASLAISGLQSEDEADYYCTSWDDRLKSWVFGGGTKLTVL | 117 % of 22G2 | 1.46 | 2.03 | 1.87 | 11300 | 0.252 | 5.79 | 1.83 |
| 43586p2.F02 (scFv, V domains shown) VH: EVQLLESGGGLVQPGGSLRLSCAASGFTFDDYVMSWVRQAPGKGLEWVSLINWNGDKTYYADSVKGRFTISRDNSKNTLYLQMNSLRAEDTAVYYCARHWIVLQYGLDVWGQGTTVTVSS VL: QSVLTQPLSASGTPGQRVTISCSGVSSNIEIKYVSWYQQLPGTAPKLLIYNSHQRPSGVPDRFSGSKSGTSASLAISGLQSEDEADYYCTSWDDRLKSWVFGGGTKLTVL | 92 % of 22G2 | 1.85 | 1.9 | 1.77 | 8960 | 1.81 | 96 | 14.4 |
| 43586p2.F11 (scFv, V domains shown) VH: EVQLLELGGSLVQPGGSLRLSCAASGFTFDDYVMSWVRQAPGKGLEWVSLINWNGDKTYYADSVKGRFTISRDNSKNTLYLQMNSLRAEDTAVYYCARHWIVFQYGLDVWGQGTTVTVSS VL: QSVLTQPLSASGTPGQKVTISCSGVSSNIEIKYVSWYQQLPGTAPKLLIYNSHQRPSGVPDRFSGSKSGTSASLAISGLQSEDEADYYCTSWDDRLKSWVFGGGTKLTVL | 104 % of 22G2 | 1.98 | 1.93 | 1.92 | 9200 | 0.307 | 6.23 | 2.09 |
